Molecular target: T1, death receptor 5 (DR5) (UniProt O14763 56-182, limits assumed)
T1 construct: also called TRAIL Receptor 2; TRAILR2
Assay: not stated (told in the legend of the schematic FIG. 1A)

T1 sequence (O14763 56-182 limits assumed): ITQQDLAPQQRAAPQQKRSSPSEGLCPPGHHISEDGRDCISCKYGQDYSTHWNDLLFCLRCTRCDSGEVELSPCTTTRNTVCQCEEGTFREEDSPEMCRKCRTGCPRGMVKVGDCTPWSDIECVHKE

B1: DRA monomer (single Tn3 type III fibronectin domain of tenascin engineered to bind death receptor 5) (designed binder)
chain: GAIEVKDVTDTTALITWAKPWVDPPPLWGCELTYGIKDVPGDRTTIDLQQKHTAYSIGNLKPDTEYEVSLICFDPYGMRSKPAKETFTT
notes: also called Tn3 monomer; monomer of the Tn3 domain
B1 was tested, and the Kd was 43 nM.

Reference: US11491206 (DUKE UNIVERSITY, dated 2022)
